For this assay, the target named is GST-LB3-coil2 (Xenopus). The assay is described as follows: biosensor binding studies.

The values below come from publication PMC2699591.

As usually defined, the Kd is a measure of binding affinity in units of concentration. Read a high Kd as a looser complex.

The substance “6His-tagged full-length Nudel (6His-Nudel, 1-345 aa) (natural protein)” displayed a Kd of 50 µM.
